Tests used:
[1] = target: T1, human CD3 expressed on cells (Jurkat cells; human primary T cells) (human, UniProt P07766 23-207; P04234 22-171; P09693 23-182); experiment: flow cytometry, 25 nM, Jurkat cells
T1 construct: whole, on cells
Procedure, shortened: (§1)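 Flow cytometric binding was measured after cells were incubated with antibody (25 nM, PBS+2% FBS) at 4° C for 30 minutes. Signals were normalized to isotype to yield FOI, with ≥10 scored positive.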

[2] = target: T2, cynomolgus monkey CD3 expressed on cyno primary T cells (cynomolgus monkey, UniProt Q95LI5 22-198; Q95LI8 22-171; Q95LI7 23-181); experiment: flow cytometry, cyno primary T cells
T2 construct: whole, on cells; CD3 complex on purified cynomolgus monkey CD3 pan T cells; also called cyno CD3
T2 sequence (Q95LI5 22-198, chain 1 of 3): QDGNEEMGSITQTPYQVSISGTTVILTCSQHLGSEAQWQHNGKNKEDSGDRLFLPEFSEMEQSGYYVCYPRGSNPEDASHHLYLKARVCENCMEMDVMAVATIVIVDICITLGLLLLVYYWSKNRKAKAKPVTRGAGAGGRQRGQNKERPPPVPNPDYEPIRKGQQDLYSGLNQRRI
T2 sequence (Q95LI8 22-171, chain 2 of 3): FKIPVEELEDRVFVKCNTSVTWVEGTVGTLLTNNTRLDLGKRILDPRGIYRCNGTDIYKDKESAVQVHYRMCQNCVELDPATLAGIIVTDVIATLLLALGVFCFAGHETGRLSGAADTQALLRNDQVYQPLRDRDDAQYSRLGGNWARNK
T2 sequence (Q95LI7 23-181, chain 3 of 3): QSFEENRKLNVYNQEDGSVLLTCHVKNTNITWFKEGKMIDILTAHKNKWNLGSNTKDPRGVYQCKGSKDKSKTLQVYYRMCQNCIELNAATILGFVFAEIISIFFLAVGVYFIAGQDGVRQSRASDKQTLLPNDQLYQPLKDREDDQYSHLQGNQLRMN
Procedure, shortened: as §1

[3] = target: T1, human CD3 expressed on cells (Jurkat …); experiment: flow cytometry, 25 nM, human primary T cells
Procedure, shortened: as §1

T1 sequence (P07766 23-207, chain 1 of 3): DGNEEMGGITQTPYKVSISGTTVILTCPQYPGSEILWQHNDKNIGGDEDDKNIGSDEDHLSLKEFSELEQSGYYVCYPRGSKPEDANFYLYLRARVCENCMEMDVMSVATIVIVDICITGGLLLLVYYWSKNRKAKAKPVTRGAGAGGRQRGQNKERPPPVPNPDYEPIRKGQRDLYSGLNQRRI
T1 sequence (P04234 22-171, chain 2 of 3): as the sequence (Q95LI8 22-171, chain 2 of 3) above, with V5I, K15N, V20I, T32S, N33D, N34I, A64T, N74S, L83V, R141H counted along it
T1 sequence (P09693 23-182, chain 3 of 3): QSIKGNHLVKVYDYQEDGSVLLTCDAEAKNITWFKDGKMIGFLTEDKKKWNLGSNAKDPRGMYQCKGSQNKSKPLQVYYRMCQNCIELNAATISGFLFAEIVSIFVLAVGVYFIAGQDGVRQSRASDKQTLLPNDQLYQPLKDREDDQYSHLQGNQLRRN

Binding (FOI) [1] [FOI] | Binding (FOI) [3] [FOI] | Binder | binding result [2]
215 | 297 | mAb 251 (antibody, V domains shown, VH/VL only) VH: EVQILESGGGLVQPGGSLRLSCVASGFTFRSYVMSWVRRAPGRGLEWVSGISASGGNTYYADSVKGRFTISRDNSKNTLFLQMNGLRAEDTAVYYCAKLFSYYYYFMDVWGKGTTVTVSS VL: SYELTQPLSVSVALGQTARITCGGNNIGSKDVHWYQQKPGQAPVLVIYRDSNRPSGIPERFSGSNSGNTATLTISGAQAGDEADYYCQVWDRRTAVFGGGTQLTAL | no binding (tested: FOI <10 (FOI >=10 = positive); 25 nM)
184 | 270 | mAb 252 (antibody, V domains shown, VH/VL only) VH: EVQILESGGGLVQPGGSLRLSCVASGFTFRSYVMSWVRRAPGRGLEWVSGISTSGGNTYYADSVKGRFTISRDNSKNTLFLQMNGLRAEDTAVYYCAKLFSYYYYFMDVWGKGTTVTVSS VL: SYELTQPLSVSVALGQTARITCGGNNIGSKDVHWYQQKPGQAPVLVIYRDSNRPSGIPERFSGSNSGNTATLTISGAQAGDEADYYCQVWDRRTAVFGGGTQLTAL | no binding (tested: FOI <10 (FOI >=10 = positive); 25 nM)
61.5 | 73 | mAb 256 (antibody, V domains shown, VH/VL only) VH: QVQLQQSGPGLVKPSQTLSLTCAISGDSVSSNYASWNWIRQSPSRGLEWLGRTYYRSKWYNDFAVSVKSRVTINADTSKNQFSLHLSSVTPEDTAIYFCAREANGRGYFYYMDVWGKGTTVTVSS VL: EIVLTQSPDFQSVTPKEKVTITCRASQSIGSSLHWYQQKPVQSPKLLIKYASQSISGVPSRFSGSGSGTVFTLTINSLEAEDAAAYFCHQSSGSPHTFGGGTKVEIK | no binding (tested: FOI <10 (FOI >=10 = positive); 25 nM)
61.3 | 88.8 | mAb 267 (antibody, V domains shown, VH/VL only) VH: QVQLQQSGPGLVKPSQTLSLTCAISGDSISSNYASWNWIRQSPSRGLEWLGRTYYRSKWYNDFAVSVKSRIIINPDTSRNQFSLHLNSVTPEDTAIYYCAREANGRGYFYYMDVWGKGTTVTVSS VL: EIVLTQSPDFQSVTPKEKVTITCRASQSIGSSLHWYQQKPDQSPKLLIKYASQSISGVPSRFSGRGSGTDFTLTINSLEAEDAAAYFCHQSSGSPHTFGGGTKVEIK | no binding (tested: FOI <10 (FOI >=10 = positive); 25 nM)
162 | 198 | mAb 255 (antibody, V domains shown, VH/VL only) VH: QVQVQQSGPGLVKPSQTLSLTCAISGDSVSSKYASWNWIRQSPSRGLEWLGRTYYRSKWYNDFAVSVKSRITINADTSKNQFSLHLSSVTPEDTAIYFCAREANGRGYFYYMDVWGKGTTVTVSS VL: EIVLTQSPDFQSVTPKEKVTITCRASQSIGSSLHWYQQKPDQSPKLLIKYASQSISGVPSRFSGSGSGTVFTLTINSLEAEDAAAYFCHQSSGSPHTFGGGTKVEIK | no binding (tested: FOI <10 (FOI >=10 = positive); 25 nM)
85 | 71.9 | mAb 266 (antibody, V domains shown, VH/VL only) VH: QVQLQQSGPGLVKPSQTLSLTCAISGDSVSSNYASWNWIRQSPSRGLEWLGRTYYRSKWYIDFAVSVKSRLTINADTSKNQFSLHLRSVTPEDTAIYFCAREANGRGYFYYMDVWGKGTTVTVSS VL: EIVLTQSPDFQSVTPKEKVTITCRASQSIGSSLHWYQQKPDQSPKLLIKYASQSISGVPSRFSGSGSGTVFTLTINSLEAEDAAAYFCHQSSGSPHTFGGGTKVEIK | no binding (tested: FOI <10 (FOI >=10 = positive); 25 nM)
62.3 | 77.7 | mAb 257 (antibody, V domains shown, VH/VL only; the printed VH holds a letter U) VH: QVQLQQSGPGLVKPSQTLSLTCAISGDSVSSNYASWNWIRQSPSRGLEWLGRTYYRSKWYNDFAVSVRSRVTINADTSKNQFSLHLSSVTPEDTAIYFCAREANGRGYFYYMDVWGKGTTVTVSS VL: EIVLTQSPDFQSVTPKEKVTITCRASQSIGSSLHWYQQKPDQSPKLLIKYASQSISGVPSRFSGSGSGTVFTLTINSLEAEDAAAYFCHQSSGSPHTFGGGTKVEIK | no binding (tested: FOI <10 (FOI >=10 = positive); 25 nM)

— patent US20230295310A1 (ABCELLERA BIOLOGICS, published 2023)
